Assays:
[1] = target: rituximab (human monoclonal IgG1) (human); assay: ITC; Z3 titrated into rituximab in the sample cell; PBS, pH 7.4, 25 °C; MicroCal PEAQ-ITC; triplicate
[2] = target: linear Z3 (linear trimer of the Staphylococcus aureus protein A Z domain) (Staphylococcus aureus); assay: AUC; sedimentation velocity at 40,000 and 60,000 rpm, PBS (Dulbecco), 20 °C, 220 nm; molar mass transformation
[3] = target: rituximab (human monoclonal IgG1) (human); assay: differential scanning fluorimetry; equimolar (1:1) mixture of rituximab and Z3 against rituximab alone; SYPRO orange, 20 mM Tris, pH 7.4
[4] = target: rituximab (human monoclonal IgG1) (human); assay: SPR; rituximab covalently immobilised (NHS/EDC) on a CM5 chip, Biacore X100; Z3 flowed over in HBS-EP+ (10 mM HEPES, 150 mM NaCl, 3 mM EDTA, 0.005% Tween-20, pH 7.4); 1:1 Langmuir model; KD calculated as koff/kon

Sequence of rituximab (human monoclonal IgG1) (human) (heavy, as listed by the source, chain 1 of 2): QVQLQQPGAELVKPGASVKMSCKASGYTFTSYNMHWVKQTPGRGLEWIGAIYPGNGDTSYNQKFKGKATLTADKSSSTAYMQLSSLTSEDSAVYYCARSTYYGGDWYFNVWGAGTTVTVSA
Sequence of rituximab (human monoclonal IgG1) (human) (light, as listed by the source, chain 2 of 2): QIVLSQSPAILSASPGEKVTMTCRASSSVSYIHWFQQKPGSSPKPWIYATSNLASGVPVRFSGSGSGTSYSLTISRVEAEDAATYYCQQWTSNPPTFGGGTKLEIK

linear Z3 (linear trimer of the Staphylococcus aureus protein A Z domain) (designed binder)
Kd [1]: 2.8 nM | dH [1]: -33 kcal/mol | stoichiometry N (IgG1 molecules per linear Z3) [1]: 1.9 | stoichiometry N [2]: < 3 | increase of the lower transition temperature of rituximab [3]: 4.9 °C | upward shift of the 81.3 °C transition of rituximab [3]: 3.3 °C | Kd [4]: 2.9 nM | koff [4]: 0.00092 s⁻¹ | kon [4]: 310000 M⁻¹ s⁻¹

cyclic Z3 (intein-cyclized trimer of the Staphylococcus aureus protein A Z domain) (designed binder)
Kd [1]: 7.6 nM | dH [1]: -32.7 kcal/mol | stoichiometry N (IgG1 molecules per cyclic Z3 molecule) [1]: 2.1 | increase of the lower transition temperature of rituximab [3]: 4.9 °C | upward shift of the 81.3 °C transition of rituximab [3]: 1.5 °C | Kd [4]: 3.3 nM | koff [4]: 0.00073 s⁻¹ | kon [4]: 220000 M⁻¹ s⁻¹
